These results are taken from paper PMC2164959.

The target in the assay is AU1-tagged codon-optimised HPV16 E5 mutant M1 (human papillomavirus type 16) (UniProt P06927). The experiment in a line: co-IP; HEK-293T transfected, lysed 20-24 h after transfection in CHAPS buffer (0.2 M NaCl, 50 mM HEPES pH 7.5, 2% CHAPS); immunoprecipitation by the tag of E5 (anti-AU1, anti-HA or anti-GFP), protein G-sepharose, blot with anti-calnexin.

B1: calnexin (natural protein)
chain: HDGHDDDVIDIEDDLDDVIEEVEDSKPDTTAPPSSPKVTYKAPVPTGEVYFADSFDRGTLSGWILSKAKKDDTDDEIAKYDGKWEVEEMKESKLPGDKGLVLMSRAKHHAISAKLNKPFLFDTKPLIVQYEVNFQNGIECGGAYVKLLSKTPELNLDQFHDKTPYTIMFGPDKCGEDYKLHFIFRHKNPKTGIYEEKHAKRPDADLKTYFTDKKTHLYTLILNPDNSFEILVDQSVVNSGNLLNDMTPPVNPSREIEDPEDRKPEDWDERPKIPDPEAVKPDDWDEDAPAKIPDEEATKPEGWLDDEPEYVPDPDAEKPEDWDEDMDGEWEAPQIANPRCESAPGCGVWQRPVIDNPNYKGKWKPPMIDNPSYQGIWKPRKIPNPDFFEDLEPFRMTPFSAIGLELWSMTSDIFFDNFIICADRRIVDDWANDGWGLKKAADGAAEPGVVGQMIEAAEERPWLWVVYILTVALPVFLVILFCCSGKKQTSGMEYKKTDAPQPDVKEEEEEKEEEKDKGDEEEEGEEKLEEKQKSDAEEDGGTVSQEEEDRKPKAEEDEILNRSPRNRKPRRE
In the case of B1, the percent of calnexin co-precipitated, relative to wild type is 50%.
